Measurements reported in IntAct's records for PubMed 19515790.

B1: Protein root UVB sensitive 1, chloroplastic (Arabidopsis thaliana (Mouse-ear cress)), Q7X6P3 (parent)
chain: MSCSYLLSGDASVVASRRWSDVSSRQRLFLPRQSLRQPSGSSFSRCVRLVANVNDHFSKQSLATRNCLASVFSADLGGSNGNNDNGNGGGGGGDGGGDNSDDSSFDLRYLCFLLLGLSCFFHFRLSAASAIAKDQNSDSNGDAVKETVWEVRGSKRKRLVPDFVKDEFVSEESAFELSSSLTPENLLAQCRNLLTQFLLPEGFPNSVTSDYLDYSLWRGVQGIASQISGVLATQSLLYAVGLGKGAIPTAAAINWVLKDGIGYLSKIMLSKYGRHFDVHPKGWRLFADLLENAAFGMEMLTPVFPQFFVMIGAAAGAGRSAAALIQAATRSCFNAGFASQRNFAEVIAKGEAQGMVSKSVGILLGIVVANCIGTSTSLALAAFGVVTTIHMYTNLKSYQCIQLRTLNPYRASLVFSEYLISGQAPLIKEVNDEEPLFPTVRFSNMKSPEKLQDFVLSSEAKAAAADIEERLQLGSKLSDVIHNKEEAIALFDLYRNEGYILTEHKGRFCVMLKESSTPQDMLRSLFQVNYLYWLEKNAGIEPASTYSDCKPGGRLHISLDYVRREFEHAKEDSESVGWVTEGLIARPLPTRIRLGHDRELLLSSPNSS
partner: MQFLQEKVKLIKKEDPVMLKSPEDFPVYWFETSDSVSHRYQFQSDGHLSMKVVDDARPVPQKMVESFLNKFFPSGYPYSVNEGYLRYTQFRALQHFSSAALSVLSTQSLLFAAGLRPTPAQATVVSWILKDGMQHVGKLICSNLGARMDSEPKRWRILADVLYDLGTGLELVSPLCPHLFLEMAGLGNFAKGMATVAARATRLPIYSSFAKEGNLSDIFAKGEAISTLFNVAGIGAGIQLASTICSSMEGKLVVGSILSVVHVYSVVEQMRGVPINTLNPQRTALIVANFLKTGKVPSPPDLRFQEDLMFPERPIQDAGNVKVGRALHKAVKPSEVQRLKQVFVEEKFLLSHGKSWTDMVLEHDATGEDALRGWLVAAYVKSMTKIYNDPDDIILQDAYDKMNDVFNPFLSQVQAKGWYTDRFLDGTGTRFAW

Variants of: B1
Settings: with rus2_arath RUS2, Q9SJX7

Variant | effect of a mutation on the interaction
K281G | disrupting interaction
E298G | decreasing interaction
N342G | decreasing interaction
K349G | disrupting interaction
